Experimental data: PMC8886539
“And” between values parts separate entries of the source, which are not always exact repeats. Identical values can stand only once.

Tests used:
[1] = biological target: DNA polymerase α-primase complex (human) (UniProt P09884)
[2] = biological target: full-length SV40 T antigen Tag_(1-708) (simian virus 40) (UniProt P03070); assay: atomic force microscopy (volume analysis); 500 nM protein (or 250 nM each of M1 and M2) with gapped DNA substrate (48 nt ssDNA at the centre of ~500 bp, 3-5 nM) in 25 mM HEPES-NaOH pH 7.5, 25 mM sodium acetate, 10 mM magnesium acetate, 1 mM ATP, 1 h at room temperature; cross-linked with 0.1% glutaraldehyde; volumes of complexes on the ssDNA stretch
[3] = biological target: DNA polymerase α-primase complex (human) (UniProt P09884); remark: listed apart in the source
[4] = biological target: wt Tag_(131-627) (simian virus 40); assay: SEC; Superdex 200 16/600 column; proteins in solution; data not shown
[5] = biological target: wt Tag_(131-627) (simian virus 40); assay: atomic force microscopy (volume analysis); 500 nM protein (or 250 nM each of M1 and M2) with gapped DNA substrate (48 nt ssDNA at the centre of ~500 bp, 3-5 nM) in 25 mM HEPES-NaOH pH 7.5, 25 mM sodium acetate, 10 mM magnesium acetate, 1 mM ATP, 1 h at room temperature; cross-linked with 0.1% glutaraldehyde; volumes of complexes on the ssDNA stretch

Chain of UniProt P09884 (P09884 whole entry, chain 1 of 4): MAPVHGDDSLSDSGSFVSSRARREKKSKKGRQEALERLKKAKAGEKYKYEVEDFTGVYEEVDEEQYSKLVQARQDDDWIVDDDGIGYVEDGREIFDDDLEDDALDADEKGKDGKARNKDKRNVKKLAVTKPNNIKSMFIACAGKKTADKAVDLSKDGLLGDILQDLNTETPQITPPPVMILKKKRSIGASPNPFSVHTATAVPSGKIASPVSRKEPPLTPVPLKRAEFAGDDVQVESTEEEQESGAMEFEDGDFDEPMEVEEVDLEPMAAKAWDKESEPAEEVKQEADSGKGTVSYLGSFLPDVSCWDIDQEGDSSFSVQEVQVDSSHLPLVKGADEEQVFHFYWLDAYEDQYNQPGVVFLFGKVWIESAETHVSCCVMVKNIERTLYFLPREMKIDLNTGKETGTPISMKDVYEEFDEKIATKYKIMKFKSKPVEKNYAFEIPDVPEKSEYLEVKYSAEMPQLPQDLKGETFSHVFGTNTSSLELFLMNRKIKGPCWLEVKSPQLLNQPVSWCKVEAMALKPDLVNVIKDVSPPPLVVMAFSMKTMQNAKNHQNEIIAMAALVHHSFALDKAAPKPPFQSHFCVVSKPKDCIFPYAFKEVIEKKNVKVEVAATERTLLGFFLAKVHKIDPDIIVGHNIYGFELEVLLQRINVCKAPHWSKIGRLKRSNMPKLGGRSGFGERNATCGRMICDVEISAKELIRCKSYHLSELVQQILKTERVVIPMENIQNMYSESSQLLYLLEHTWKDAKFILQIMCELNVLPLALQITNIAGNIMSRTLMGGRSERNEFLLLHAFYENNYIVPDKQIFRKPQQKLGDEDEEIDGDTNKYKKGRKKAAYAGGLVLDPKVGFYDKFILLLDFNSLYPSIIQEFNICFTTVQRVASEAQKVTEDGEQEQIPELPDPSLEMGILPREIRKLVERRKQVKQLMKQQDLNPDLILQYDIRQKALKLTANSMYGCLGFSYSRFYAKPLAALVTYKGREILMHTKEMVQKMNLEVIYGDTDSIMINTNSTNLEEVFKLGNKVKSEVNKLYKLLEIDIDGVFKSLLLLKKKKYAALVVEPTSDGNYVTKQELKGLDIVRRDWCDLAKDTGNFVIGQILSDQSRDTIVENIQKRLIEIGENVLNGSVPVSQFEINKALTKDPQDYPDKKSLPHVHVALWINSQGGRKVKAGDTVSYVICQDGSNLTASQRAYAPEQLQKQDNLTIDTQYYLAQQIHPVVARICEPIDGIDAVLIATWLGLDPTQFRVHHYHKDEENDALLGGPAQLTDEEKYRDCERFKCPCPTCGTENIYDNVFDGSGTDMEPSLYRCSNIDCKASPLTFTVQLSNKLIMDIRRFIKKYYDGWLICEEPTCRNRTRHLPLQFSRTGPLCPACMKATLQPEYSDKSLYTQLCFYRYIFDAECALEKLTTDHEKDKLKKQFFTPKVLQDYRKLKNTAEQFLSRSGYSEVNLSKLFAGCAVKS
Chain of UniProt P09884 (Q14181 whole entry, chain 2 of 4, further chain): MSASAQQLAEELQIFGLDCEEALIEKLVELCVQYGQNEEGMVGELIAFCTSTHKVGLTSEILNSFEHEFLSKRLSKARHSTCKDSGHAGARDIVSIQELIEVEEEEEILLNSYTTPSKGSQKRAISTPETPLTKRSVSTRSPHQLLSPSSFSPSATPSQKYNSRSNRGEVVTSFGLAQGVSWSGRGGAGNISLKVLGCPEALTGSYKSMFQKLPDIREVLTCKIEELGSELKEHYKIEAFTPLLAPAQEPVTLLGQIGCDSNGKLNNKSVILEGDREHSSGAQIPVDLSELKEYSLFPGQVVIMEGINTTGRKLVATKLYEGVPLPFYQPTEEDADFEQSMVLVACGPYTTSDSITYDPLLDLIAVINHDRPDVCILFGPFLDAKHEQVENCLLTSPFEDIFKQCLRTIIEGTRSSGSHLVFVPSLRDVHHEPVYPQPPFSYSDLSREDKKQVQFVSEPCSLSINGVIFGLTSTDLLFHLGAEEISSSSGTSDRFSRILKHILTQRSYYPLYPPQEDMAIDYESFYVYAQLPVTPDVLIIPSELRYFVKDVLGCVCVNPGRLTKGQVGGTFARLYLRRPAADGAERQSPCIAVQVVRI
Chain of UniProt P09884 (P49643 whole entry, chain 3 of 4, further chain): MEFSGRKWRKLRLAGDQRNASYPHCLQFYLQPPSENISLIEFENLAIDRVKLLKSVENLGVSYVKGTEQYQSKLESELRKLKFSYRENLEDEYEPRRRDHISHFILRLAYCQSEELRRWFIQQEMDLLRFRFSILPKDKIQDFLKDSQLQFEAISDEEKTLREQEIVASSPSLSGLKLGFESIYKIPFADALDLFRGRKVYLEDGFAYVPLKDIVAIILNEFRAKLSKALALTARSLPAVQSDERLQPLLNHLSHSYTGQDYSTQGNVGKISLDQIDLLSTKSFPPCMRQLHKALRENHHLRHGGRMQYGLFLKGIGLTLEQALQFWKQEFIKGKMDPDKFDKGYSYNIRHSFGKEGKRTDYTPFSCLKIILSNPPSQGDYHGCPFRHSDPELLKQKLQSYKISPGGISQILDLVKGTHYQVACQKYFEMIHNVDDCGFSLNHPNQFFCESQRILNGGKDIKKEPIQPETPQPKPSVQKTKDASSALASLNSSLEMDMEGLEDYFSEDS
Chain of UniProt P09884 (P49642 whole entry, chain 4 of 4, further chain): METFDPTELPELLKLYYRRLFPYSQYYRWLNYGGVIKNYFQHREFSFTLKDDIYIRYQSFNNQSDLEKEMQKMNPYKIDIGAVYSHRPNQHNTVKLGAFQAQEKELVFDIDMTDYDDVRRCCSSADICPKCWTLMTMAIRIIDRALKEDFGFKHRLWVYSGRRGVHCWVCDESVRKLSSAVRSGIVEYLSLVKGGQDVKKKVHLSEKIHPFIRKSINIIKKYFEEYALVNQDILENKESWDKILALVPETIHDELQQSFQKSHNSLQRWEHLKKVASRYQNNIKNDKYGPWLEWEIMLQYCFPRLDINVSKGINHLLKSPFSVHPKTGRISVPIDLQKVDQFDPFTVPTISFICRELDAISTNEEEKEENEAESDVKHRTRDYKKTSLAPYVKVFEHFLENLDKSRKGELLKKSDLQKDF

In the case of “full-length SV40 T antigen Tag_(1-708) (from UniProt P03070 1-708) (natural protein)”, the primase-initiated DNA synthesis (dNMP incorporation) by Pol-prim on RPA-bound ssDNA (0.5 µg RPA), 0.3 and 0.6 µg Tag, stimulation against RPA without Tag [1] is reported as 11.5 fold and the stoichiometry N [2] is reported as 2.
“Tag_(131-627)(L286D/R567E) (domain or fragment)” showed a primase-initiated DNA synthesis (dNMP incorporation) by Pol-prim on ΦΧ174 ssDNA, 0.3 and 0.6 µg Tag variant, stimulation against Pol-prim alone [3] of 4 fold and a primase-initiated DNA synthesis (dNMP incorporation) by Pol-prim on RPA-bound ssDNA (0.5 µg RPA), 0.3 and 0.6 µg Tag variant, stimulation against RPA without Tag [1] of 10.4 fold.
For “Tag_(131-627)(V350E/P417D) (domain or fragment)”, the primase-initiated DNA synthesis (dNMP incorporation) by Pol-prim on ΦΧ174 ssDNA, 0.3 and 0.6 µg Tag variant, reduction against Pol-prim alone [3] was 65 % reduction.
wt Tag_(131-627) (domain or fragment) was tested, and the primase-initiated DNA synthesis (dNMP incorporation) by Pol-prim on ΦΧ174 ssDNA, 0.3 and 0.6 µg Tag variant, inhibition against Pol-prim alone [3] was 96 % inhibition, the stoichiometry N [4] was 6 and the stoichiometry N [5] was 6 and 12.
